Assays:
GST-RhBBX28 [1] = target: T1, GST-RhBBX28 (Rosa hybrida, UniProt A0A8K1NC92 1-241); experiment: EMSA
T1 sequence: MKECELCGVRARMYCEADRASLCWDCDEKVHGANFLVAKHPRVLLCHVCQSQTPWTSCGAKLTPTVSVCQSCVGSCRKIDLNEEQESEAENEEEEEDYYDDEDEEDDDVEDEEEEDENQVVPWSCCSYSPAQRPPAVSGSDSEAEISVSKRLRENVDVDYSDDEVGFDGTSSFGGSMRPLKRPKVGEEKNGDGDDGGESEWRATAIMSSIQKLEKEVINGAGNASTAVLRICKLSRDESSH

GST-RhPIF8 [2] = target: T2, GST-RhPIF8 (Rosa hybrida, UniProt A0A8K1NC13 1-452); experiment: EMSA
T2 sequence: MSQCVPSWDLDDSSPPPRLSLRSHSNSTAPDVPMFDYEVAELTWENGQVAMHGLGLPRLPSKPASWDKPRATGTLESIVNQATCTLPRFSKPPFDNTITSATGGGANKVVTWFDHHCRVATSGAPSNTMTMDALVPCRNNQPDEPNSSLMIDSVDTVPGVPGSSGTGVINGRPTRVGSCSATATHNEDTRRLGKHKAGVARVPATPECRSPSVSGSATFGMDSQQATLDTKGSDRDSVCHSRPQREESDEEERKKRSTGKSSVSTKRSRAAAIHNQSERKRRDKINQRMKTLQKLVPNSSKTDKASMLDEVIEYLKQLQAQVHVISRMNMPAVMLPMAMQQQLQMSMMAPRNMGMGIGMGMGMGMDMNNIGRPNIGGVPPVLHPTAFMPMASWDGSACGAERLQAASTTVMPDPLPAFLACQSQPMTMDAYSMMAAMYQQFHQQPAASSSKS

GST-RhBBX28 [3] = target: T1, GST-RhBBX28; experiment: EMSA; remark: listed apart in the source
GST-RhPIF8 [4] = target: T2, GST-RhPIF8; experiment: competition
GST-RhBBX28 [5] = target: T1, GST-RhBBX28; experiment: competition

B1: RhSDH1 probe2 (dsDNA)
DNA 1: AGGTTTTGCAACTAGAAACGTGTTAGAAGAATAATCACAG
DNA 2: CTGTGATTATTCTTCTAACACGTTTCTAGTTGCAAAACCT
binding result (GST-RhBBX28 [1]): no binding

B2: RhBBX28 probe (dsDNA)
DNA 1: GCCTAACACATGGCCACCATACCACCACGACCCTGC
DNA 2: GCAGGGTCGTGGTGGTATGGTGGCCATGTGTTAGGC
binding result (GST-RhPIF8 [2]): binds

B3: RhSDH1 probe (dsDNA)
DNA 1: GTCAACTCCTCACGTTTCATGAGTCTTCTATAGGAATCAACACGTTACATTCTGCA
DNA 2: TGCAGAATGTAACGTGTTGATTCCTATAGAAGACTCATGAAACGTGAGGAGTTGAC
binding result (GST-RhBBX28 [3]): binds

B4: RhBBX28 mProbe (dsDNA)
DNA 1: GCCTAAAAAAAAACCACCATACCACAAAAAACCTGC
DNA 2: GCAGGTTTTTTGTGGTATGGTGGTTTTTTTTTAGGC
binding result (GST-RhPIF8 [4]): no binding

B5: RhSDH1 mProbe (dsDNA)
DNA 1: GTCAACTCCTAAAAAATCATGAGTCTTCTATAGGAATCAAAAAAAAACATTCTGCA
DNA 2: TGCAGAATGTTTTTTTTTGATTCCTATAGAAGACTCATGATTTTTTAGGAGTTGAC
binding result (GST-RhBBX28 [5]): no binding

— publication PMC8408477
